Measurements from patent US20230181756A1 (Novartis, published 2023).
Numbering of substitutions follows the chain as printed. Names and notes keep the numbering of the source.

T1: human CCR7 (human, UniProt P32248 25-378)
T1 construct: The assay field tells which; also called hCCR7; NIH3T3.hCCR7
T1 sequence: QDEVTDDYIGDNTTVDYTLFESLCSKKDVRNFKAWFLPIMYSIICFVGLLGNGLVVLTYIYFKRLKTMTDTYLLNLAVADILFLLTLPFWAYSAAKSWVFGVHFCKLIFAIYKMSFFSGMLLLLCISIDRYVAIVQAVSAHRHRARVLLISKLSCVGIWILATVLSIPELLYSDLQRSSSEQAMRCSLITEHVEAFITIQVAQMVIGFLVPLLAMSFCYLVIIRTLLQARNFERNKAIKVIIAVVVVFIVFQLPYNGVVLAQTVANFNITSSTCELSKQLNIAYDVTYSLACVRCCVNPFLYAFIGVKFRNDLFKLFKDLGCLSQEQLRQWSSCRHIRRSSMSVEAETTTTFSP

T2: CCR6 (UniProt P51684 1-374, limits assumed)
T2 construct: whole, on cells; also called PF382 cells (CCR7-/CCR9+/CCR6+)
T2 sequence (looked up): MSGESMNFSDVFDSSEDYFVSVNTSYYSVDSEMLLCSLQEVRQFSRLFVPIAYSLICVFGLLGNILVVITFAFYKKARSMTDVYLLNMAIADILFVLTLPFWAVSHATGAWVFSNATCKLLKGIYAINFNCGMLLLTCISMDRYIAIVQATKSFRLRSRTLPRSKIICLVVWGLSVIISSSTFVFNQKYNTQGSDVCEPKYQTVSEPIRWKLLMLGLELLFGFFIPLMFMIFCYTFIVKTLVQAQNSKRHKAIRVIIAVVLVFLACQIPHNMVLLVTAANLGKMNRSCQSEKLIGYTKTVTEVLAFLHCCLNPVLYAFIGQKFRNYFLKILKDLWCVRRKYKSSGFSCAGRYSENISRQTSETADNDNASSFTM

T3: CCR9 (UniProt P51686 1-369, limits assumed)
T3 construct: whole, on cells; also called PF382 cells (CCR7-/CCR9+/CCR6+)
T3 sequence (looked up): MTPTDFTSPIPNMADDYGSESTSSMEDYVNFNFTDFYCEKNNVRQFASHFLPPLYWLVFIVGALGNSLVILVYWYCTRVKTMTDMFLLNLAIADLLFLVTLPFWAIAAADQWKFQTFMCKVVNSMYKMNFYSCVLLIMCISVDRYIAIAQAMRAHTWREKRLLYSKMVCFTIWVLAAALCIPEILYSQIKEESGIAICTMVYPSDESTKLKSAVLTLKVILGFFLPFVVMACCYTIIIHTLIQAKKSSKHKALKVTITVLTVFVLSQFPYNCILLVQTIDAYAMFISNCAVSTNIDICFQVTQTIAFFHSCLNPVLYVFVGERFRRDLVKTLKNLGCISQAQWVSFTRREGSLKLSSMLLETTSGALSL

T4: cynomolgus monkey CCR7 (cynomolgus monkey, UniProt P32248 25-378 (human entry))
T4 construct: also called Cyno CCR7; NIH3T3.cyno CCR7
T4 sequence: T1 sequence with D174G

T5: recombinant hCCR7 (Origene #TP306614) (human, UniProt P32248 25-378, limits assumed)
T5 construct: Bought protein coated on ELISA plates; also called recombinant CCR7
T5 sequence (looked up): T1 sequence

B1: 674J13 humanized CysMab (Fc Wild Type) (antibody, V domains shown)
VH: DVQLQESGPGLVKPSQTLSLTCTVSGYSITSGYSWHWIRQHPGKGLEWMAHIHSSGSTNYNPSLKSRITISRDTSKNQFSLKLSSVTAADTAVYYCARGGVQAFAYWGQGTLVTVSS
VL: EIVLTQSPATLSASPGERVTMSCSASSSVIYMHWYQQKPGQAPRRWIYDTSKLASGVPARFSGSGSGTDYTLTISSMEPEDAAVYYCQQWSSNPLTFGQGTKLEIK
notes: Human IgG1 kappa with CysMab cysteines; also called Humanized CysMab antibody 674J13
B2: Humanized 121G12.CysMab.DAPA (antibody, human IgG1, kappa)
heavy: EVQLVESGGGLVKPGGSLRLSCAASGFTFSTYAMSWVRQAPGKGLEWVATISDAGSYSYYPDNVKGRFTISRDNAKNSLYLQMNSLRAEDTAVYYCARRGSRYEEYYVMDYWGQGTTVTVSSASTKGPSVFPLAPSSKSTSGGTAALGCLVKDYFPCPVTVSWNSGALTSGVHTFPAVLQSSGLYSLSSVVTVPSSSLGTQTYICNVNHKPSNTKVDKRVEPKSCDKTHTCPPCPAPELLGGPSVFLFPPKPKDTLMISRTPEVTCVVVAVSHEDPEVKFNWYVDGVEVHNAKTKPREEQYNSTYRVVSVLTVLHQDWLNGKEYKCKVSNKALAAPIEKTISKAKGQPREPQVYTLPPSREEMTKNQVSLTCLVKGFYPCDIAVEWESNGQPENNYKTTPPVLDSDGSFFLYSKLTVDKSRWQQGNVFSCSVMHEALHNHYTQKSLSLSPGK
light: EIVLTQSPATLSVSPGERVTLSCRASQSISNNLHWYQQKPGQAPRLLIKYASQSISGIPARFSGSGSGTDFTLTISSVEPEDFGVYFCQQSSSWLTFGQGTKLEIKRTVAAPSVFIFPPSDEQLKSGTASVVCLLNNFYPREAKVQWKVDNALQSGNSQESVTEQDSKDSTYSLSSTLTLSKADYEKHKVYACEVTHQGLSSPVTKSFNRGEC
notes: Human IgG1 kappa with D265A/P329A and CysMab cysteines; also called 121G12 (Humanized CysMab, DAPA)
B3: 121G12.DAPA.sSPDB.DM4 (antibody, human IgG1, kappa)
heavy: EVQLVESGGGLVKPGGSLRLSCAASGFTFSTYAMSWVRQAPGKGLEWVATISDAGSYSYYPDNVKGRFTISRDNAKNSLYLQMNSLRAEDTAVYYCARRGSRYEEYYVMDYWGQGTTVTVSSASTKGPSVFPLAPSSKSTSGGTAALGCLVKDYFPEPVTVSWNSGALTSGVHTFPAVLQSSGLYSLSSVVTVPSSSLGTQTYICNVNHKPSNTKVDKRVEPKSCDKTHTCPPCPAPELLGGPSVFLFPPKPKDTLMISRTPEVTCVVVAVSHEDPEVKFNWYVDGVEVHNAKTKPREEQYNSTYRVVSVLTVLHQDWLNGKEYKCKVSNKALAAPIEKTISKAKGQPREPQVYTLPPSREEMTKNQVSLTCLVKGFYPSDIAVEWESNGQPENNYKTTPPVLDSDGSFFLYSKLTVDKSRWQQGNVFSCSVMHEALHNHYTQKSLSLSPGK
light: B2 light
modifications: sulfo-SPDB-DM4 on endogenous lysines (sites not defined, may also be on the light chain); DAR 3.6 in Example 4B, DAR 3.9 in Tables 20 and 21
notes: also called 121G12.sSPDB.DM4
B4: Humanized 506E15.CysMab.DAPA (antibody, human IgG1, kappa, V domains shown)
VH: EVQLVESGGGLVKPGGSLRLSCAASGFTFSSYAMSWIRQAPGKGLEWVATISSGGSFTYYPDSVKGRFTISRDNAKNSLYLQMNSLRAEDTAVYYCARRASTVVGTDFDVWGQGTTVTVSS
VL: DIQMTQSPSSLSASVGDRVTLTCRASQDIGSSLNWLQQKPGKAIKRLIYATSSLDSGVPSRFSGSRSGTDYTLTISSLQPEDFVVYYCLQYASSPPTFGGGTKLEIKR
notes: Human IgG1 kappa with D265A/P329A and CysMab cysteines; also called 506E15 (Humanized CysMab DAPA)
B5: 506E15 humanized CysMab (Fc Wild Type) (antibody, V domains shown)
VH: B4 VH
VL: DIQMTQSPSSLSASVGDRVTLTCRASQDIGSSLNWLQQKPGKAIKRLIYATSSLDSGVPSRFSGSRSGTDYTLTISSLQPEDFVVYYCLQYASSPPTFGGGTKLEIK
notes: Human IgG1 kappa with CysMab cysteines; also called Humanized CysMab antibody 506E15

Key:
human CCR7 [1] = molecular target: T1, human CCR7; experiment: ELISA on CCR7-expressing VLPs, pH 7.4 buffer
CCR6 = molecular target: T2, CCR6; experiment: FACS on PF382 cells (CCR7-/CCR9+/CCR6+)
CCR9 = molecular target: T3, CCR9; experiment: FACS on PF382 cells (CCR7-/CCR9+/CCR6+)
CXCR4 = molecular target: T6, CXCR4 (UniProt P61073 1-352, limits assumed); experiment: FACS on HEK293-CXCR4 cells
T6 construct: whole, on cells; also called HEK293-CXCR4
T6 sequence (P61073 whole entry): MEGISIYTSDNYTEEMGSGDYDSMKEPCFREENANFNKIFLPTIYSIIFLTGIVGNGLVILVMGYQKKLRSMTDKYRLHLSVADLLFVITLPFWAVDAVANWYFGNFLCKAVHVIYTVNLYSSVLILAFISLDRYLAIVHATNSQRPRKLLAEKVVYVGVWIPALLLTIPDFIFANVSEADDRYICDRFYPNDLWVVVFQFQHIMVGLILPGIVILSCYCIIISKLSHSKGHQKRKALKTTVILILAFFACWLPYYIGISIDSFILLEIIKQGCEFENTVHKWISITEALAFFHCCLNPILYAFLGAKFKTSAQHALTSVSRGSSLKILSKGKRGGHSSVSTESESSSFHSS

human CCR7 [2] = molecular target: T1, human CCR7; experiment: ELISA on CCR7-expressing VLPs, pH 5.8 buffer
cynomolgus monkey CCR7 = molecular target: T4, cynomolgus monkey CCR7; experiment: FACS titration, cynomolgus CD4+ T cells
CCR8 = molecular target: T7, CCR8 (UniProt P51685 1-355, limits assumed); experiment: FACS on CHO-CCR8 cells
T7 construct: whole, on cells; also called CHO-CCR8
T7 sequence (P51685 whole entry): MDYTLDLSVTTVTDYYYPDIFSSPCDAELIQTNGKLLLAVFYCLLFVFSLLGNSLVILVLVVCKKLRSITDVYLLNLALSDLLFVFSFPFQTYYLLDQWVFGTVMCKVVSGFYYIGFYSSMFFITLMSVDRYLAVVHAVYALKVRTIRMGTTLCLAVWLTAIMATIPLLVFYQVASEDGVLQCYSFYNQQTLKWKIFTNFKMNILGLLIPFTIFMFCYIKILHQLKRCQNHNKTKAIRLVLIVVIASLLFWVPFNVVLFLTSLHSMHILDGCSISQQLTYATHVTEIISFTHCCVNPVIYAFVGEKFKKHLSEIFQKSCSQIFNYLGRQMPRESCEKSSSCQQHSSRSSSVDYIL

human CCR7 [3] = molecular target: T1, human CCR7; experiment: FACS titration, NIH3T3.hCCR7 cells (receptor density >1,000,000)
[4] = molecular target: T5, recombinant hCCR7 (Origene #TP306614); experiment: ELISA, recombinant CCR7 coated at 3.5 ug/ml, antibody titrated
[5] = molecular target: T5, recombinant hCCR7 (Origene #TP306614); experiment: ELISA on plate-coated recombinant hCCR7, antibody titrated, anti-hFc-HRP detection, OD 650 nm
human CCR7 [6] = molecular target: T1, human CCR7; experiment: FACS titration, DEL cancer cells (receptor density ~100,000)
human CCR7 [7] = molecular target: T1, human CCR7; experiment: cell-based or functional assay
human CCR7 [8] = molecular target: T1, human CCR7; experiment: FACS titration, human CD4+ T cells (receptor density <2,000)
human CCR7 [9] = molecular target: T1, human CCR7; experiment: cell-based or functional assay; remark: listed apart in the source
human CCR7 [10] = molecular target: T1, human CCR7; experiment: FACS binding on CCR7 expressing cells, against the unconjugated antibody
human CCR7 [11] = molecular target: T1, human CCR7; experiment: FACS titration, DEL cells (CCR7 receptor levels >=100,000)
human CCR7 [12] = molecular target: T1, human CCR7; experiment: cell-based or functional assay; remark: listed apart in the source
human CCR7 [13] = molecular target: T1, human CCR7; experiment: FACS titration, human CD4+ T cells from PBMC

Row | Binder | Kd (human CCR7 [1]) | binding result (CCR6) | binding result (CCR9) | binding result (CXCR4) | Kd (human CCR7 [2]) | EC50 (cynomolgus monkey CCR7) | binding result (CCR8) | EC50 (human CCR7 [3]) | Kd [4] | EC50 (human CCR7 [6]) | pHrodo (6 h MFI), internalization, CD4+ T cells (receptor numbers 2000) (human CCR7 [7]) | pHrodo (6 h MFI), internalization, CMLT1 cells (receptor numbers 19583) (human CCR7 [7]) | pHrodo (6 h MFI), internalization, DEL cells (receptor numbers 110685) (human CCR7 [7]) | pHrodo (6 h MFI), internalization, JVM3 cells (receptor numbers 8717) (human CCR7 [7]) | pHrodo (6 h MFI), internalization, Jeko-1 cells (receptor numbers 28852) (human CCR7 [7]) | pHrodo (6 h MFI), internalization, KE97 cells (receptor numbers 152093) (human CCR7 [7]) | pHrodo (6 h MFI), internalization, L540 cells (receptor numbers 167549) (human CCR7 [7]) | pHrodo (6 h MFI), internalization, L1236 cells (receptor numbers 61602) (human CCR7 [7]) | pHrodo (6 h MFI), internalization, MJ cells (receptor numbers 111121) (human CCR7 [7]) | pHrodo (6 h MFI), internalization, MOTN1 cells (receptor numbers 84200) (human CCR7 [7]) | further results
1 | B1 | 0.0162 nM | no binding (tested: 5 ug/ml) | no binding (tested: 5 ug/ml) | no binding (tested: 5 ug/ml) | 0.166 nM | 0.5 nM | no binding (tested: 5 ug/ml) | – | – | – | – | – | – | – | – | – | – | – | – | – | –
2 | B2 | – | – | – | – | – | – | – | 2.5 nM | 0.677 nM | 1.78 nM | 278 MFI | 301 MFI | 1910 MFI | 148 MFI | 450 MFI | 1570 MFI | 6840 MFI | 1240 MFI | 1650 MFI | 1030 MFI | EC50 (read off the curve) [5]: ~0.6 nM; pHrodo (6 h MFI), internalization, Mec2 cells (receptor numbers 50840) (human CCR7 [7]): 1340 MFI; EC50 (human CCR7 [8]): ~30 nM
3 | B3 | – | – | – | – | – | – | – | – | – | – | – | – | – | – | – | – | – | – | – | – | ADC activity in cell viability assay; IC50 (nM); DEL cells (human CCR7 [9]): 2.98 nM; ADC activity in cell viability assay; IC50 (nM); KE97 cells (human CCR7 [9]): 3.18 nM; ADC activity in cell viability assay; IC50 (nM); L540 cells (human CCR7 [9]): 3.9 nM; difference of geometric mean fluorescence intensity from the unconjugated antibody (human CCR7 [10]): ≤ 20%; EC50 (human CCR7 [11]): 8.42 nM
4 | B4 | – | – | – | – | – | – | – | 1.8 nM | 5.73 nM | 3.09 nM | 429 MFI | 465 MFI | 3060 MFI | 238 MFI | 908 MFI | 2720 MFI | 16100 MFI | 3130 MFI | 3870 MFI | 2900 MFI | pHrodo (6 h MFI), internalization, Mec2 cells (receptor numbers 50840) (human CCR7 [7]): 3090 MFI; EC50 (human CCR7 [8]): ~10 nM
5 | B5 | 0.0571 nM | no binding (tested: 5 ug/ml) | no binding (tested: 5 ug/ml) | no binding (tested: 5 ug/ml) | 0.494 nM | 7 nM | no binding (tested: 5 ug/ml) | – | – | – | – | – | – | – | – | – | – | – | – | – | ADCC activity; IC50 (nM); reporter assay, JVM2 targets and Jurkat-V158 effectors (human CCR7 [12]): 0.054 nM; EC50 (human CCR7 [13]): 7.8 to 11 nM
